# Measured values published in paper PMC11116900, “Interaction among homeodomain transcription factors mediates ethylene biosynthesis during pear fruit ripening”.
# T1: PbHB.G2.1 (pear (Pyrus; species  in the …, UniProt A0A5N5HPW9 1-368)
# T1 sequence: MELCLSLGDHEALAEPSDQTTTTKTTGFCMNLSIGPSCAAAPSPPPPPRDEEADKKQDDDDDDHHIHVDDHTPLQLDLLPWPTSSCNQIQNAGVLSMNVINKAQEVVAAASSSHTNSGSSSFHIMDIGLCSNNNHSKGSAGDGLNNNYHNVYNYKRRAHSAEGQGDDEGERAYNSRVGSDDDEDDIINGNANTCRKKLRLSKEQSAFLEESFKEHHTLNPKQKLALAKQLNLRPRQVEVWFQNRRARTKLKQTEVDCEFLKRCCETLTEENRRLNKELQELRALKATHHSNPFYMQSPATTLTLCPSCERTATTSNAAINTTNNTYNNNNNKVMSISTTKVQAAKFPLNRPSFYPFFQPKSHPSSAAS
# T2: PbHB.G7.2 (pear (Pyrus; species  in the …, UniProt A0A5N5HLN1 1-287)
# T2 sequence: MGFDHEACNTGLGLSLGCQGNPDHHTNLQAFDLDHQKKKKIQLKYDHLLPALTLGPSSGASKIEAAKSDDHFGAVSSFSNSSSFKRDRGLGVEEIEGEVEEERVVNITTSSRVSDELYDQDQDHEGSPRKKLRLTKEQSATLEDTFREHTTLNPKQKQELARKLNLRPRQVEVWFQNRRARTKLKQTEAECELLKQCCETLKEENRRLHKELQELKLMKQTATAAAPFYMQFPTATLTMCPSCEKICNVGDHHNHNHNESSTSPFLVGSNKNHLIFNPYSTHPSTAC
# T3: PbHB.G1 (pear (Pyrus; species  in the …, UniProt UPI0020301D10 1-344)
# T3 sequence: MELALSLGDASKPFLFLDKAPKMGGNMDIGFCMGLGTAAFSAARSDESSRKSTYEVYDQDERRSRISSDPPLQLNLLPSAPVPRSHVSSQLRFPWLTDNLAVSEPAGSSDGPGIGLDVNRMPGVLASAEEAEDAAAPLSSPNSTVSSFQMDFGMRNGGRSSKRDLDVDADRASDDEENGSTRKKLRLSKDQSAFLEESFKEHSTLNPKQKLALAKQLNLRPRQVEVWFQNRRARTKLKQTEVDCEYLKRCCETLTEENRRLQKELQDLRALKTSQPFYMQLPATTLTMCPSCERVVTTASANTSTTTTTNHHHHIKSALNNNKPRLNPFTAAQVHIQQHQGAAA
# B1: PbACS1b promoter P17 probe 2 (40 bp) (dsDNA)
# DNA 1: CCTCAAGGAAATAGTAATACCCTTTAGATTTGAAGTCCTA
# DNA 2: TAGGACTTCAAATCTAAAGGGTATTACTATTTCCTTGAGG
# B2: PbACS1b promoter P9 probe (34 bp) (dsDNA)
# DNA 1: CTTATGGGTCGGTTTTTCTACATTTGAATTTTGA
# DNA 2: TCAAAATTCAAATGTAGAAAAACCGACCCATAAG
# B3: PbACS1b promoter P16 probe 1 (33 bp) (dsDNA)
# DNA 1: TTATATGTTGTATCTTATTTCATCGTTGATTAC
# DNA 2: GTAATCAACGATGAAATAAGATACAACATATAA
# Legend:
# Experiment in all cases: EMSA; competed by 10x and 100x cold probe; EMSA according to a previous study (ref 35); buffer, salt, pH and temperature not given
# Details in all cases: protein: recombinant; tags: TF (trigger factor) fusion from pCold-TF; chain copies: 2; label: biotin
# [1] = molecular target: T1, PbHB.G2.1
# [2] = molecular target: T2, PbHB.G7.2
# [3] = molecular target: T3, PbHB.G1
binder,measurement,setting,value
B1,binding result,[1],binds
B2,binding result,[2],binds
B3,binding result,[3],binds
